# The supplement of paper PMC10724198
# ± gives the standard deviation of the averaged measurements.
# Test system: Saccharomyces cerevisiae
# Assay: protein stability index of tFT-peptide fusion (C-terminal peptide) (PSI (0-1 scale)); higher = more stable (slower turnover)
# Conditions: genetic background: wild type; temperature: 30 C
# 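Further: PSI is a weighted mean of sequencing reads over stability bins, variants kept only with over 10 reads, mCherry proximal and sfGFP distal, peptide attached via GGGS linker.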
row,Sequence,protein stability index
1,LGRLGAFITQPA,0.671 ± 0.059
2,PPCVSGHPLRYS,0.727 ± 0.045
3,RPGLWGNEVGGN,0.735 ± 0.013
4,NKEYSLIIKTHN,0.61529 ± 0.00011
5,SSSRLLALSSLH,0.694 ± 0.053
6,PFCYALPWAPPR,0.644 ± 0.076
7,LRVNFPLHDPHP,0.65 ± 0.049
8,CPVSWRPLCTVS,0.6177 ± 0.0054
9,FPRPSLPFPPHR,0.609 ± 0.00064
10,LPCPSPPPSPLS,0.675 ± 0.06
11,SRWDPLYVPWRM,0.696 ± 0.014
12,SGLGRLRSGRVL,0.698 ± 0.012
13,VSVGCLFVVGRG,0.713 ± 0.039
14,CSPMFTRQPLPL,0.645 ± 0.027
15,KQEDIKNKKKKE,0.679 ± 0.032
16,CSGCSGSCSVLA,0.646 ± 0.049
17,KKQKKKKTQTNK,0.68224 ± 0.00034
18,GVGGGGCVLVRG,0.723 ± 0.018
19,NSTTNVKTQHTL,0.731 ± 0.023
20,FLFCLLGSFRSF,0.5829 ± 0.004
21,GAPLALSVSFPG,0.648 ± 0.014
22,FLLPQLFVSSSF,0.699 ± 0.035
23,PVAPPQLSPPSS,0.6704 ± 0.0048
24,MGVCLGPPTVWR,0.684 ± 0.043
25,ITAATFCRRPAS,0.659 ± 0.12
26,GKTRLRAKLTYN,0.62 ± 0.08

row,Sequence,protein stability index
1,PLVSPPPLPHRP,0.69 ± 0.02
2,ATHPGCATPDAH,0.704 ± 0.015
3,HPGLRLENVNPQ,0.702 ± 0.014
4,PAPPPLPPHSLP,0.718 ± 0.024
5,LSYQTGTTRTRK,0.728 ± 0.056
6,SISPWFFFFLDW,0.579 ± 0.014
7,TELCPPDTPTGD,0.6921 ± 0.0016
8,LLSSATPSKFPS,0.836 ± 0.021
9,IKNEKKNKRKKK,0.71337 ± 0.00014
10,RIFFTCDSFLCV,0.611 ± 0.04
11,LQKRKQMRKIKE,0.646 ± 0.019
12,KAYGSCRSLAWF,0.712 ± 0.061
13,VLGGSGFAGSPS,0.659 ± 0.014
14,TEGMISSHRVIH,0.727 ± 0.058
15,LRHLLAPPPRPP,0.649 ± 0.016
16,CLPPSSIVPFIS,0.59 ± 0.024
17,FSPSFGSLLVIC,0.556 ± 0.02
18,RRTEHPRTRAAR,0.692 ± 0.045
19,FFTDACQRVMKG,0.633 ± 0.049
20,GIGEGRDGFVVV,0.67 ± 0.058
21,IFPFKDDVPFVS,0.684 ± 0.0015
22,PPIVPFGSPVVL,0.728 ± 0.026
23,VHSGSVDVSSFS,0.697 ± 0.018
24,TLMLVTGLSTEV,0.662 ± 0.01
25,SYGPSRPARVPS,0.695 ± 0.05
26,FVSSFSCVGLVL,0.644 ± 0.08

row,Sequence,protein stability index
1,AVGMVLEYFTLG,0.671 ± 0.029
2,KLPILDKKAVAQ,0.696 ± 0.03
3,PYPCPPRPSPPP,0.76 ± 0.034
4,APNPYHKPPSLR,0.701 ± 0.11
5,LESSAKSRTMVL,0.721 ± 0.014
6,GCRGEWGWVGRG,0.691 ± 0.017
7,HLPPPPSPSPPP,0.686 ± 0.012
8,PAVCIPLPARQL,0.743 ± 0.026
9,VSWVYNFKKIRS,0.694 ± 0.078
10,GFIYRLCRISIP,0.635 ± 0.025
11,PFPHPPPPSPTP,0.687 ± 0.021
12,IGCFVEFLYGVW,0.593 ± 0.023
13,AQPCISGLTCRY,0.729 ± 0.0096
14,SSLWVGFLGCVG,0.646 ± 0.008
15,DDAVTHTLWVSE,0.692 ± 0.012
16,PAPDATQRVRSQ,0.645 ± 0.0089
17,WGSLVRLFGLWR,0.6541 ± 0.0015
18,YYRKATFSPMVQ,0.684 ± 0.072
19,TELRRRVGYVAL,0.663 ± 0.032
20,QSSGGSDSVLFG,0.738 ± 0.041
21,HHSAPARLAFRY,0.673 ± 0.023
22,GASGLRIIQVSW,0.671 ± 0.0098
23,ENVINGLITIKK,0.742 ± 0.039
24,LPLLSSLLALLY,0.647 ± 0.042
25,LLSFLPPVFLLL,0.514 ± 0.014
26,FAGLVSPASLHP,0.686 ± 0.026

row,Sequence,protein stability index
1,GSDIIGSRDGWL,0.67 ± 0.039
2,TSDVGWVPAGSE,0.656 ± 0.043
3,TLIPPLLRNALP,0.713 ± 0.0066
4,KKRKEIKNREEK,0.739 ± 0.035
5,ITKELKNIKQED,0.675 ± 0.0088
6,DGSGPSWGRKGR,0.6942 ± 0.0043
7,RSGCGVVGVWEE,0.668 ± 0.032
8,RGRASVIWGGPG,0.659 ± 0.086
9,SNTKPTCSNQQS,0.688 ± 0.077
10,NSTPTTPPIPHQ,0.702 ± 0.091
11,PTLCLPESSGRL,0.705 ± 0.028
12,VMVMELHGYPVV,0.655 ± 0.044
13,LLSRLLLAPSSL,0.65 ± 0.019
14,GVVLDVRCVGLF,0.661 ± 0.021
15,RATMFFLFPMFP,0.622 ± 0.024
16,GYLEGMVYRESD,0.689 ± 0.025
17,KTKKKKEQTKKK,0.808 ± 0.15
18,RAVPLLPRVLFW,0.6819 ± 0.0047
19,VVRFEGYVLGWG,0.647 ± 0.072
20,RGSGSGTRCRRS,0.682 ± 0.11
21,PWSFSPLPFVLL,0.673 ± 0.037
22,GRYGPTIPRGEP,0.696 ± 0.017
23,AGLSGRGFLRGA,0.6923 ± 0.0062
24,PFPSIPLPPPSR,0.703 ± 0.03
25,LPSPYPPPRPLP,0.711 ± 0.034
26,ASGWWGGAVGLR,0.68375 ± 0.00064

row,Sequence,protein stability index
1,LFPAIWPRVLSW,0.566 ± 0.02
2,PVAGMSNTPLYG,0.685 ± 0.11
3,GCRARKSRRTPT,0.664 ± 0.011
4,PVILPPLAPFLS,0.629 ± 0.019
5,GRRKKKNRDKMK,0.6872 ± 0.004
6,LPPHPPSPPFLP,0.588 ± 0.023
7,RAVESPDKSSCE,0.664 ± 0.11
8,WVGCALEQGGAV,0.71 ± 0.0019
9,RGEHKDYFYVMT,0.651 ± 0.0076
10,GWVGGCGGGRGI,0.683 ± 0.0092
11,RCKYLPSSRGMI,0.675 ± 0.011
12,VLGLGSGGVCGG,0.693 ± 0.023
13,EREGVREGEGRV,0.654 ± 0.02
14,SSPHQVLTTRAP,0.705 ± 0.13
15,LSLGGSPSKRRP,0.648 ± 0.029
16,LWKVVAPRDESP,0.67 ± 0.023
17,PAPPAPTHAPPL,0.683 ± 0.11
18,ISCSDNMLLLFD,0.697 ± 0.01
19,SVSPPLSFPPSR,0.706 ± 0.022
20,FTLRILSRPVIP,0.656 ± 0.046
21,CGSWAGRAWPGR,0.755 ± 0.014
22,TKTCPMGVIEIC,0.656 ± 0.0013
23,AHPPLLPPLLPS,0.639 ± 0.015
24,KSGGWLWGGGGG,0.663 ± 0.054
25,KQAPTLFLSFIL,0.5885 ± 0.0028
26,EKGRKKTYGDEK,0.669 ± 0.02

row,Sequence,protein stability index
1,SDNIKIPKEKRK,0.668 ± 0.026
2,PSFVPHLPRPPP,0.722 ± 0.071
3,QLRDNQNTLLQE,0.7138 ± 0.006
4,QGVLRAEAVDKG,0.622 ± 0.019
5,WRGQRGRIAGPR,0.6694 ± 0.0062
6,LGRVLSFGHAFV,0.698 ± 0.021
7,GRSGGEGGGEEE,0.681 ± 0.029
8,GLKKRTIILSVK,0.532 ± 0.0056
9,KKVTEKSKNEKR,0.692 ± 0.053
10,LLLVRNCQDSRQ,0.69 ± 0.057
11,NKKDKKMNKDKR,0.6791 ± 0.0014
12,LDELTRRAEGCG,0.596 ± 0.008
13,LGLCQVLFSFRV,0.56816 ± 0.00044
14,LNLLCGFRQVGG,0.701 ± 0.013
15,LYSPPPPPIPSP,0.7046 ± 0.0067
16,GSSVGVAGLRGR,0.656 ± 0.029
17,PPPPPPPPAVVA,0.569 ± 0.028
18,RHNKVSPNARYN,0.661 ± 0.027
19,GGGRGGGGGGDA,0.697 ± 0.038
20,PPFPPPLLPPSP,0.732 ± 0.036
21,RGALQQLREHTS,0.687 ± 0.055
22,GDFFQRVVGGGG,0.733 ± 0.16
23,HPAAPPPPPPPR,0.732 ± 0.066
24,SFRASVSAPCLF,0.683 ± 0.067
25,PLPPPPVPPTPS,0.606 ± 0.012
26,LRFELCLCIEPA,0.53 ± 0.059

row,Sequence,protein stability index
1,VREGKDREVSGF,0.715 ± 0.031
2,ARLSNLPPSPPR,0.678 ± 0.032
3,SKRQKKENLKET,0.633 ± 0.044
4,KGRRVSTGRRRR,0.712 ± 0.004
5,GVIYFSLSSFPL,0.655 ± 0.14
6,CLSATTFSYVFA,0.576 ± 0.0061
7,DVNTGYHFLRDL,0.6757 ± 0.0015
8,IKNEKKKEIELN,0.639 ± 0.0065
9,GWVVSGIFGRCC,0.689 ± 0.013
10,VGGAPLVSACCI,0.596 ± 0.022
11,LLGFRLACTSGA,0.648 ± 0.0079
12,CCAVLSSMSSFD,0.668 ± 0.053
13,RSNVGCDLKQTC,0.6556 ± 0.0027
14,LCGSSVSHLVLP,0.7125 ± 0.0054
15,LAGRSVVLLWMG,0.602 ± 0.021
16,GNKKEKYNRTSS,0.683 ± 0.0078
17,PLLFPSSPLPPS,0.63 ± 0.036
18,QKKKHRTTGKTT,0.655 ± 0.035
19,GIAACASSGLAV,0.657 ± 0.034
20,SRFISTLPGLLA,0.708 ± 0.035
21,GGSDLLIGFWPC,0.716 ± 0.027
22,SGTRIQFRLGMS,0.723 ± 0.064
23,LVRGFVDKYVIS,0.652 ± 0.01
24,SGRSSQNHRCWI,0.684 ± 0.012
25,TRLLAWGVVGLF,0.633 ± 0.086
26,PVSPAHLRRSLL,0.775 ± 0.031

row,Sequence,protein stability index
1,DITKNGKSKMLK,0.664 ± 0.051
2,TGAALPRPGPAL,0.659 ± 0.031
3,FWGGGGGVGLAV,0.683 ± 0.063
4,VQYGHIVKGWCS,0.697 ± 0.013
5,STDQFFLFFCVG,0.735 ± 0.2
6,PGSQPPFVPPPR,0.604 ± 0.019
7,GGDGGSDHHRER,0.6856 ± 0.0044
8,GAGWLSWEGGGD,0.686 ± 0.04
9,GGVSVPSERFRS,0.788 ± 0.044
10,YRGNLVTDGYGA,0.685 ± 0.019
11,RSMSQKSRIVSF,0.67 ± 0.14
12,FSVFFDFIIARF,0.632 ± 0.067
13,GRERASHRGPRN,0.648 ± 0.0066
14,HGSYYSAVWGKG,0.684 ± 0.096
15,LWSICWNRVFPF,0.6973 ± 0.0017
16,NAFSHSASRVIS,0.682 ± 0.016
17,LLYLFMSSRFLW,0.6369 ± 0.003
18,RSTIEHILLFFI,0.668 ± 0.015
19,RISGVEKPLLRV,0.663 ± 0.015
20,KKRKGKGRDIRG,0.7025 ± 0.0016
